Measurements reported in the supplement of paper PMC12042874.
± gives the uncertainty stated by the source.

Experiment: amyloid nucleation score (Sup35N fusion, yeast selection) (log enrichment); library NNK3; higher = more nucleation; inactive = no reads after selection
Summary of the method: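 The nucleation score equals the log enrichment of output over input reads from DiMSum, centred on the mode score of non-aggregating sequences. It was computed only for sequences with 100 or more input reads. The reads came from Illumina sequencing of plasmid inserts from psi-negative yeast expressing Sup35N fused to peptides of 20 random codons, induced with 100 μM copper sulfate for 24 hours and grown 7 days at 30°C without adenine and uracil.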

| Substance | amyloid nucleation score |
| --- | --- |
| FWKNHRAIHSMFQRHLRHTF | inactive |
| NFGHMY | inactive |
| MIKVLCTLFIDWAVAYVICH | inactive |
| VCGDRKIFNHADVVYRMGRS | inactive |
| NYKLQKHAWMNYSAHQECLF | inactive |
| RMNYNAYRIFLTPISDWCNL | inactive |
| TFMPIGLNL | inactive |
| IKPSAS | inactive |
| FIRARLLRHHTLARNAYVLR | inactive |
| AHRLHSLINSLTLSNRSMM | inactive |
| YHRRLSTVLMGCMNRGLNYL | inactive |
| IAYKFWGSNVLDR | inactive |
| CLIFDLSRKKYWVKRDRKAW | 1.91 ± 0.062 |
| WTQAGQIRMRKRSR | inactive |
| GVSRGLSLPRSLKYRYCCAV | inactive |
| PSSFASP | inactive |
| MPRESLDLSTWVLVEEFIYI | inactive |
| IDVKSLSWKMYRRLGTIPYT | -0.317 ± 0.93 |
| QARRSIYSISECGGGI | 0.234 ± 0.33 |
| LYSHSGSFSIGSQFNFVWFT | 1.44 ± 0.14 |
| TVLVGDMVVR | inactive |
| HLCRFYSSFGDSTSSRLSGN | inactive |
| PLAGLELCMRRRWVEE | inactive |

| Substance | amyloid nucleation score |
| --- | --- |
| YNYLV | inactive |
| SSSMCYRCDLSMFLGSGRSG | inactive |
| LSELYHTFYSVVNGGHVLMI | inactive |
| GVGLIE | inactive |
| FPRHCKPRCL | inactive |
| SAGDTDRRPVFH | -0.058 ± 1 |
| EFVFECLYGTLLGRALMLRP | inactive |
| FESSGAGRFRSIWYGYMRVF | inactive |
| SVNIMVMTVMNY | 1.81 ± 0.058 |
| LDFKIPRN | inactive |
| AMSIVERQGDVWLSYRKWNG | inactive |
| RTFRSFSQVYRPILRRGHSG | inactive |
| VNPCLYGPYSSNNCSRSYFV | inactive |
| STSYGLRIVSKNDDYLRTAR | 0.511 ± 0.19 |
| VRSVRGADELDLICHRLSRN | inactive |
| FMYILWRVSKKLFIALMWFR | inactive |
| FISINTPPCLCMS | inactive |
| IYCYRLALF | inactive |
| PFHLRVMKIRLRLPVVHLKG | inactive |
| LRGVGDRIGNTSGISGLWPG | 0.759 ± 0.19 |
| NPLDSLYLIDIFAHSSASEL | inactive |
| PTIKDLDTSIFGYLLGSVGD | inactive |
| GGRLSLKESWKAGFSIAERF | inactive |

| Substance | amyloid nucleation score |
| --- | --- |
| CRKTESAMRWK | inactive |
| SFAKHHDMK | inactive |
| HISGYNDYMFDP | inactive |
| FGTDDEDVKCNVMTALCRIW | inactive |
| VCLKVQWDYCIRLWVGMSYD | inactive |
| MSYSGTAHGDFLLRSCPARM | inactive |
| SALKGLTRELSVRVY | inactive |
| YDLRCCTAVLFDLVESRATL | inactive |
| IHPVNLRVLSFGHIWCWYLR | inactive |
| YDWKNL | inactive |
| FLERISFYIKLVSRSYGGTS | inactive |
| LRPVRYRLCVRFNWMCVRCK | -0.582 ± 0.95 |
| LLKVSGYWLMLRGLTRKFMG | -0.047 ± 1.1 |
| YVWIDTMGL | inactive |
| WYGITEIP | inactive |
| ECGFKKR | -0.383 ± 1.3 |
| DGAVFRFNMGHYKYSLVEVM | inactive |
| LQRTWLKVFGASCFICDDFL | 1.99 ± 0.097 |
| FANFSILS | inactive |
| VQSFGPNFD | inactive |
| NISSVVLGGGLRVGARRI | inactive |
| TWIMALLMILFNKVFVSSTR | inactive |
| MWVPYSAFRMDQEFGFYGIT | 0.057 ± 0.24 |

| Substance | amyloid nucleation score |
| --- | --- |
| RSTVHRYSCDNCVEVIISKQ | 1.18 ± 0.12 |
| CMNWCVSRMVNTIVIWCMAY | inactive |
| KAVQAVVLSLTGWFGVERLY | inactive |
| PSENKRGFPDLVFAMINSGI | inactive |
| LVRKAAVPN | inactive |
| IREYCFH | inactive |
| MSMPWNNHMISNVYRSYFVA | inactive |
| TLSCSDFTVLGTCDAVEGIN | inactive |
| LMAFNPMYSSQKYGTNYSFM | inactive |
| KVICVLFKIMKLF | 0.442 ± 0.18 |
| FKIEDQYNLMHRVFLVSNGG | inactive |
| KYPSYLNLSCVAVKYVWCSE | 1.94 ± 0.071 |
| LIVYFRPYGNALRRFVRSYV | inactive |
| TVTVQYTG | inactive |
| PDSKWVFRNAALMTETCIGR | inactive |
| LRQSTSMPCNFCIYLEERKD | 1.43 ± 0.073 |
| VEFSPMFHQGVTM | inactive |
| YSVSEIRKSHLWITINMAVF | inactive |
| SLFIYGHYEHKHSGSLKFFA | inactive |
| NVYELIDCGLTYQVYSYGSR | 0.611 ± 0.24 |
| SGWIYMERIAS | inactive |
| MIDRRMSFRQGDHKDCPTAH | inactive |
| SDPVPVMDIALYLVNPQLPS | inactive |

| Substance | amyloid nucleation score |
| --- | --- |
| VDYFW | inactive |
| GNEWRWWVLRNLLSCFSIP | inactive |
| GTPALCQ | inactive |
| DLLTFYFEPSASHSLLRPSG | inactive |
| RFWFWQPVVYIIRWIRVPLA | inactive |
| SSKYISFSTTSYCTGLYRTP | 0.896 ± 0.16 |
| YFFKTQISSDGTLSTYECME | inactive |
| VYLKLSILFSCAFSN | inactive |
| RYNGSTTGSRLYMLLSMSLN | inactive |
| DTVRHLISYRGLGRLHRHTM | inactive |
| MSSRPGFNT | inactive |
| QPLHCK | inactive |
| FEFYTMWSIWARVLFPLKIY | inactive |
| STIYKPVYFRVVTGFLMW | inactive |
| LWPIGIFKKCYVDRICYYCV | inactive |
| LCLRRGGFVRIGVWVFVFYG | inactive |
| SGSKR | inactive |
| RFYGDM | inactive |
| QRSEV | inactive |
| CSEQEACISK | inactive |
| RLFLGVGCMS | inactive |
| CVVPHPLSLPSD | inactive |
| GLMALNVMSVNTTEYCRAYW | 0.56 ± 0.12 |

| Substance | amyloid nucleation score |
| --- | --- |
| IYSDHAL | inactive |
| VMVSPPFTYWSRYVDYEYGE | inactive |
| SSMWF | inactive |
| WYACRIQ | 0.517 ± 0.23 |
| CLTLMALAKGFGVWGG | -0.176 ± 0.92 |
| EKFNCNVFIANWAK | 0.358 ± 0.36 |
| NMLKAASKTVKG | inactive |
| SIKSLTIDSCLTS | 0.809 ± 0.2 |
| RLYLVGYRLIRCRFGILGAC | inactive |
| QQCCTLVCWRRMI | inactive |
| NCICDIYILTLELSLLRRWV | inactive |
| AWKLKFFVFNSLSVIT | inactive |
| YHGVLRWSKSTFAAHYPVTA | inactive |
| FNTIAIDTSLVGSNYAGATK | inactive |
| LLYENTVSSRGTVLRDHLS | 0.456 ± 0.36 |
| PTTMVPQPRPYSLRRTLAY | inactive |
| RRPLVWKFFQNLGTMN | inactive |
| NMRVCCIGNSFSMGYLICWY | 2.47 ± 0.057 |
| RNLRYICRFALGGVARLWCG | 0.197 ± 0.55 |
| DALVYVLGSCMWIGASSTSA | -0.354 ± 1.1 |
| SSLLYIDRIVLSRTVIPMLL | inactive |
| HRTLVMGP | inactive |
| SLGAMYVRCDKSWR | inactive |

| Substance | amyloid nucleation score |
| --- | --- |
| YKWSLTTRRTVRHLRED | inactive |
| TIEFWGRVAGFLLM | inactive |
| YCWYRQMDNSRGGYYMWVS | inactive |
| TDISLCNLGKHKVLRGL | inactive |
| TYEEGRRQCSRAPMDSYVQS | inactive |
| VNGFFLVACTCSYFNNRSSW | 1.57 ± 0.12 |
| LKVMWLWSAKINYMSIVENL | inactive |
| YRGPVGIDSGVRS | inactive |
| RPFYLWNLNIICCPFIQTVK | 2.39 ± 0.072 |
| INQGLTWMLDRPSKFAFVAV | inactive |
| CSGYFDCIDTLKCNSS | inactive |
| LASKLDCVLPHYNVGRCNDP | 0.297 ± 0.7 |
| KAAEDMRGFHCGARKSIRVD | inactive |
| CFHVILFK | 1.11 ± 0.095 |
| HLGKRNEKNTVLARLNFGQ | inactive |
| VSYNFGYAYECLGYVRFV | 0.572 ± 0.36 |
| RMIRNIFGSHAVLCFGCKC | 2.9 ± 0.068 |
| FRRLSFMVVFGERKGVVSLG | inactive |
| CDFIHCLVCFLPIWKSCGTE | 0.732 ± 0.34 |
| RLRLGAAGRQGSEVVYNWSM | 1.23 ± 0.12 |
| GYDAGAWPRWRRSIWVHGYG | inactive |
| RSLHWNLGLCIWYNEFRDLM | 1.8 ± 0.074 |
